Measurements as given in patent CN110872351A.

Target: GPC3蛋白 (glypican-3 protein expressed in eukaryotic HEK293 cells) (UniProt P51654)
Assay: sandwich ELISA: coated GPC3 polyclonal antibody, GPC3 protein at varied concentration, GN1-Luc fixed at 0.2 μg/mL, luminescence; the value is a GPC3 concentration

Sequence of UniProt P51654 (P51654 25-559 limits assumed): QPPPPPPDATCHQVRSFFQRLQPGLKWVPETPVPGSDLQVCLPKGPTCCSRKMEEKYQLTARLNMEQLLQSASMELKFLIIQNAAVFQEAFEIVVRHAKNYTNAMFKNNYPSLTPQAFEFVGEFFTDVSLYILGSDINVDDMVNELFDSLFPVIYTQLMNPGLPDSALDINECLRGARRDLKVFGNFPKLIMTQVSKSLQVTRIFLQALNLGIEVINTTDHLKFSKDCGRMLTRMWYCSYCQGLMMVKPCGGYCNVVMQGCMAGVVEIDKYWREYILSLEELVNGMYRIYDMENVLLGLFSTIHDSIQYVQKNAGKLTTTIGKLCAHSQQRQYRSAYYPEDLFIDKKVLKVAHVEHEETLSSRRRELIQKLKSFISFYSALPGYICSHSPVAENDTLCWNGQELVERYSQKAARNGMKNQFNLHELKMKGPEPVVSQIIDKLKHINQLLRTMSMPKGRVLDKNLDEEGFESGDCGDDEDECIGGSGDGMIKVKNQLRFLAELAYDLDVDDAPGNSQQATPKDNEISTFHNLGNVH

EC20: 0.0519 µg/mL | EC80: 0.157 µg/mL
B1: 融合蛋白GN1-Luc (fusion of nanobody GN1 and Nano-luciferase) (protein, part only; not given: junction residues and His tag, part only)
chain, part: QVQLVESGGGLVQAGGSLRLSCAASGRTFVGSTMGWFRQAPGKEREFVARMSWLGRSTYYADSVKGRFTISRDNAKNTVYLQMNSLKPEDTAVYYCALALGYIDLARPDAVDAWGQGTLVTVSS
